The values below come from patent US20180127503A1 (EUREKA THERAPEUTICS, published 2018).

No end group written: not given here. *: point of attachment. Biotin = O=C1N[C@H]2[C@H](CS[C@H]2CCCCC(=O)*)N1

In assay [1] the target is T1, human ROR2 expressed on the cell surface (human, UniProt Q01974 34-943).
T1 construct: Endogenous ROR2 of human tumour cell lines; also called cell surface ROR2; ROR2 on tumour cell lines
In words: flow cytometry, SKOV3 cells (ovarian CA). Also on record: unit not given here. Here is the method: (§1) Human tumour cell lines were authenticated using short tandem repeat (STR) analysis. They were cultured in RPMI1640 (Cellgro) supplemented with 10% fetal bovine serum (FBS, Life Technologies) at 37° C. in a 5% CO₂ humidified incubator. They were harvested, washed in PBS and reacted with ROR2-IgG at 1 ug/10⁶ tumour cells on ice for an hour. #901-IgG was used as a negative control at the same dose. After washing, a secondary PE-conjugated goat anti-human IgG, Fcγ fragment specific (1:100, Jackson ImmunoResearch) was added for another 30 min incubation. Staining was analyzed on a FACSCalibur (BD Biosciences). ROR2 (full length) antibody binding towards multiple cancer cell lines were compared with Rituxan and Herceptin antibodies. The cancer cell lines were derived from breast cancer, colorectal cancer, mesothelioma, hepatocellular carcinoma, ovarian cancer, osteosarcoma, neuroblastoma, etc. ROR2 #90 antibody could recognize most of the tumour cells tested, and in some cases, the binding intensity was higher than Herceptin (see Tables 8 to 10).

Assay [2] addresses T1, human ROR2 expressed on the cell surface. In words: flow cytometry, SKMEL28 cells (melanoma). Also on record: reference not given here. On the procedure: as §1
A general note: In flow cytometry, cells or beads pass a laser one at a time.

Assay [3] has the same target. The assay is described as follows: flow cytometry, OUMS 27 cells (chondrosarcoma). Also on record: unit not given here. On the procedure:
as §1

Assay [4] has the same target. The assay is described as follows: flow cytometry, SKNSH cells (neuroblastoma). Also on record: unit not given here. On the procedure: as §1
Assay [5] has the same target. The assay is described as follows: flow cytometry, BE(1)N cells (neuroblastoma). Also on record: unit not given here. On the procedure: as §1
Assay [6] shares this target. The assay is described as follows: flow cytometry, MCF7 cells (breast CA). Also on record: unit not given here. On the procedure: as §1
Assay [7] shares this target. The assay is described as follows: flow cytometry, COLO 205 cells (CRC). Also on record: unit not given here. Here is the method:
as §1

Assay [8] has the same target. The assay is described as follows: flow cytometry, OVCAR3 cells (ovarian CA). Also on record: unit not given here. On the procedure:
as §1

For assay [9] the target is unchanged. In words: flow cytometry, H345 cells (SCLC). Also on record: unit not given here. On the procedure: as §1
Assay [10] has the same target. In words: flow cytometry, IMR32 cells (neuroblastoma). Also on record: unit not given here. On the procedure:
as §1

The target is the same in assay [11]. In words: flow cytometry, SKHEP-1 cells (HCC). Also on record: unit not given here. On the procedure: as §1
For assay [12] the target is unchanged. In words: flow cytometry, AU565 cells (breast CA). Also on record: unit not given here. Here is the method:
as §1

Assay [13] has the same target. The assay is described as follows: flow cytometry, H524 cells (SCLC). Also on record: reference not given here. On the procedure: as §1
For assay [14] the target is unchanged. The assay is described as follows: flow cytometry, HTB63 cells (melanoma). Also on record: unit not given here. On the procedure: as §1
Assay [15] shares this target. In words: flow cytometry, SKNMM cells (neuroblastoma). Also on record: unit not given here. On the procedure:
as §1

Assay [16] addresses T2, biotin-SGSG-KTITATGVLFVRLGP ROR2 array peptide (human).
T2 construct: Peptide of the overlapping ROR2 peptide array, immobilised on streptavidin plates
T2 peptide: Biotin-SGSGKTITATGVLFVRLGP
The assay is described as follows: ELISA on biotinylated ROR2 peptide array. Here is the method:
To better understand the structural basis of the ROR2-specific antibody as a drug candidate, a standard epitope mapping was performed by ELISA against a ROR2 peptide array. The peptide array covers the whole length of the ROR2 protein through 96 overlapping peptides ([…] each with 4 amino acids worth of space between them). The peptides were biotinlyated at the N-terminal to immobilize them onto streptavidin ELISA plates. A spacer (SGSG) was used to provide flexibility. The space was inserted at the N-terminal biotin-SGSG-15 amino acids. ELISA assays were performed with the full length ROR2 antibodies as the primary antibody and an anti-human Fc AP-conjugated antibody was used for detection. […] FIG. 12 indicates the epitope position in ROR2 primary structure. This sequence is not shared by ROR1 and not found in human proteins by PBLAST.
For orientation: An ELISA detects its analyte on a solid surface through an enzyme-linked reagent.

T1 sequence (Q01974 34-943 limits assumed): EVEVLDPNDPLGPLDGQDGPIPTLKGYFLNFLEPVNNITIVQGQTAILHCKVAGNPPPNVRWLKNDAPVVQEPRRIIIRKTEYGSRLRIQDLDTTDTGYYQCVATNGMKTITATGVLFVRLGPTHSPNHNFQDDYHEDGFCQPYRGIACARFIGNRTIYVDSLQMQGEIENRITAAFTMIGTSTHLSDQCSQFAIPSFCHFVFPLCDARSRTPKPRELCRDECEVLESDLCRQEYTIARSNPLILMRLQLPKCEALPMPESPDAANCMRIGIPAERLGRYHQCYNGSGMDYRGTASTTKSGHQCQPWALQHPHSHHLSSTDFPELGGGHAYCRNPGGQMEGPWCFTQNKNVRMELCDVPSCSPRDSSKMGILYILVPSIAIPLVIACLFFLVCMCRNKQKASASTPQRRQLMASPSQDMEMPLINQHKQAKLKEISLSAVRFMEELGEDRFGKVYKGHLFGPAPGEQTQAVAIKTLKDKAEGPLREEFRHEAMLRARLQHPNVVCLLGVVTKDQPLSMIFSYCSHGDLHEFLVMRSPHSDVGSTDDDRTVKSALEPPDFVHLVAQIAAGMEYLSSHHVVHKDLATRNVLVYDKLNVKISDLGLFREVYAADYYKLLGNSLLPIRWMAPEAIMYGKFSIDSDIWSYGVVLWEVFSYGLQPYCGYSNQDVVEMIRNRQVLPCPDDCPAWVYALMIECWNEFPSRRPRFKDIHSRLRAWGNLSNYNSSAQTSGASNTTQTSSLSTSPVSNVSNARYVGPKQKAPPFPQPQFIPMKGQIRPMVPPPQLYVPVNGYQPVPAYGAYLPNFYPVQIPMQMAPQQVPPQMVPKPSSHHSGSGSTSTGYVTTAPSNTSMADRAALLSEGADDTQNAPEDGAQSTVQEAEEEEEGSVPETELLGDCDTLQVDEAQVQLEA

B1: ROR2-240 full length human IgG1 antibody (antibody, V domains shown)
VH: QITLKESGPELVKPTQTLTLTCTFSGFSLSTSGMSVSWIRQPPGKALEWLARIDWDDDKYYSTSLKTRLTISKDTSKNQVVLTMTNTDPVDTATYYCARGFYLAYGSYDSWGQGTLVTVSS
VL: QSALTQPASVSGSPGQSITISCTGTSGDVGGYNYVSWYQHHPGKAPKLIIYDVNKRPSGFSDRFSGSKSGNTASLTISGLQAEDEADYYCSSYTSTSTVFGGGTKLTVLG
notes: also called clone #240 IgG1
On to B1, for which the binding intensity in assay [1] was 5; in assay [2] it was 4; in assay [3] it was 6; in [4] it was 113; in assay [5], 279; in assay [6], 3. Further, the binding intensity was 4 in [7]; 4 in assay [8]; 36 in assay [9]; 29 in assay [10]; 21 in assay [11]; 4 in assay [12]. Moreover, the binding intensity was 7 in assay [13], 5 in [14] and 84 in assay [15].

B2: ROR2-241 full length human IgG1 antibody (antibody, V domains shown)
VH: EVQLVQSGAEVKKPGASVKVSCKASGYTFTNYYIHWVRQAPGQGLEWMGIINPTSGRTRYAQRFQGRVTMTRDTSTNTVYMDLSSLRSEDTAMYYCARSGYYWGVNGDQWGQGTLVTVSS
VL: SYELTQPLSVSVALGQTARITCGGNNIGSKNVHWYQQKPGQAPVLVIYRDSNRPSGIPERFSGSNSGNTATLTISRAQAGDEADYYCQVWDSSIVVFGGGTKLTVLG
For the molecule B2, the binding intensity came to 42 in [1]; 20 in assay [2]; 53 in assay [3]; 141 in assay [4]; 352 in [5]; 21 in [6]. Also, the binding intensity is 24 in [7]; 22 in assay [8]; 49 in assay [9]; 50 in [10]; 53 in assay [11]; 83 in assay [12]. For the same molecule, the binding intensity in assay [13] worked out at 32; in assay [14] it was 16; in assay [15], 126.

B3: ROR2-23 full length human IgG1 antibody (antibody, V domains shown)
VH: EVQLVQSGAEVKKPGESLKISCQGSGYRFSKYWIGWVRQMPGKGLEWMGIIYPGDSDTRYSPSFQGQVTISADKSISTAYLQWSSLKASDTAMYYCARSFSSFIYDYWGQGTLVTVSS
VL: ETTLTQSPGTLSVSPGERATLSCRASQSVSSNLAWYQQKRGQAPRLLIYGASTRATGIPVRFSGSGSGTEFTLTISRLEPEDFAVYYCQQYGRSPLTFGGGTKVDIKR
notes: The light chain of clone 023 is labelled kappa; also called clone #23; clone #023 IgG1
For the molecule B3, the binding intensity in [1] was determined as 116; in assay [2] it was 20; in assay [3] it was 71; in assay [4] it was 170; in [5], 273; in assay [6], 52. For the same molecule, the binding intensity in assay [7] came to 26; in assay [8] it was 35; in assay [9], 34; in [10], 24; in assay [11], 42; in [12], 102. Also, the binding intensity came to 28 in [13], 16 in assay [14] and 77 in assay [15].

B4: ROR2-27 full length human IgG1 antibody (antibody, V domains shown)
VH: QVQLVESGAEVKKPGESLKISCKASGYSFSNYWIGWVRQMPGKGLEWMGIIYPDDSDTRYSPSFQGQVTISADKSISTAYLQWYSLKVADTAKYYCVRPRGAFDIWGQGTTVTVSS
VL: QSVLTQPPSVSGAPGQRVTISCTGSSSNIGAGHAVHWYQQLPGTAPKLLIYDNANRPSGVPDRFSGSQSGTSASLAITGLQTGDEADYYCGTWDDSPSAYVFGTGTKVTVLG
notes: also called clone #27; clone #027 IgG1
As for B4, the binding intensity in assay [1] turned out to be 36; in [2], 8; in assay [3] it was 48; in assay [4] it was 8; in assay [5], 244; in assay [6] it was 27. Also, the binding intensity was 7 in assay [7]; 7 in assay [8]; 26 in assay [9]; 16 in [10]; 23 in assay [11]; 8 in assay [12]. The values for the binding intensity in assay [13], in assay [14] and in assay [15] were 16, 8 and 69, respectively.

B5: ROR2-90 full length human IgG1 antibody (antibody, V domains shown)
VH: EVQLVESGPGLVKPSQTLSLTCTVSGGSISSGGYYWSWIRQHPGKGLEWIGYIYYSGSTYYNPSLKSRVTISVDTSKNQFSLKLSSVTAADTAMYYCARGGLYWTYSQDVWGQGTLVTVSS
VL: QPVLTQPPSASGTPGQRVTISCSGSSSNIGSDYVSWYQQLPGTAPKLLIYRNDQRPSGVPDRFSGSKSGTSASLAISGLRSEDEADYYCVAWDDSLSGYVFGSGTKVTVLG
notes: also called clone #90; antibody #90
In the case of B5, the binding intensity in assay [1] was 246; in assay [2], 26; in assay [3], 78; in assay [4], 105; in [5], 302; in [6], 115. Moreover, the binding intensity is 44 in [7]; 48 in assay [8]; 48 in assay [9]; 51 in assay [10]; 74 in assay [11]; 211 in [12]. Also, the binding intensity in assay [13] stood at 20; in assay [14], 27; in assay [15], 117. In assay [16], the binding result is “binds”.
